Kd data for 34 sequences are collected here from the Immune Epitope Database (IEDB).

The target in one assay is HLA-A*01:01. The assay is described as follows: IEDB peptide-MHC binding, purified MHC/competitive/radioactivity; filed as Kd, often an IC50 or EC50 that approximates it; ≥ and ≤ were set here for values at or beyond the usual limits of such assays.
In the next assay the target is HLA-A*26:01. The assay is described as above.
Another assay concerns the target HLA-A*30:02. The assay is described as above.
Another assay deals with HLA-A*02:03. The description is as above.
The target in another assay is HLA-A*02:02. The description is as above.
The target of a further assay is HLA-A*02:06. Described as above.
Another assay concerns the target HLA-A*02:01. Description: IEDB peptide-MHC binding, purified MHC/direct/fluorescence; filed as Kd, often an IC50 or EC50 that approximates it; ≥ and ≤ were set here for values at or beyond the usual limits of such assays. Conditions: source organism: Mycobacterium tuberculosis.
The target of another assay is HLA-B*53:01. Description: IEDB peptide-MHC binding, purified MHC/competitive/radioactivity; filed as Kd, often an IC50 or EC50 that approximates it; ≥ and ≤ were set here for values at or beyond the usual limits of such assays.
A further assay deals with HLA-A*24:02. Described as above.
Another assay concerns the target HLA-A*03:01. The description is as above. To be noted: source organism: Dengue virus 3 Martinique/1243/1999.
Another assay deals with HLA-B*58:01. Description: IEDB peptide-MHC binding, purified MHC/direct/fluorescence; filed as Kd, often an IC50 or EC50 that approximates it; ≥ and ≤ were set here for values at or beyond the usual limits of such assays.
The mark [1] stands for this setting: source organism: Mammarenavirus whitewaterense.
Setting [2] is: source organism: Vaccinia virus WR.
The mark [3] stands for this setting: source organism: Dengue virus 1 Brazil/97-11/1997.
[4] abbreviates: source organism: Dengue virus 2 Jamaica/1409/1983.
The mark [5] stands for this setting: source organism: Dengue virus 3 Martinique/1243/1999.
[6] abbreviates: source organism: SARS coronavirus Tor2.
[7] abbreviates: source organism: Mammarenavirus guanaritoense.

Some results are limits rather than exact numbers.

With KYPNLNDLK, the results for the dissociation constant Kd in the assay with HLA-A*01:01 (setting [1]), in the assay with HLA-A*26:01 (setting [1]) and in the assay with HLA-A*30:02 (setting [1]) were at least 41000 nM, at least 77900 nM and 9570 nM, respectively.

Regarding DTIAHINTL, the Kd – broadly, the constant that tells how readily two partners part at equilibrium – in the assay with HLA-A*02:03 (setting [2]) stood at 233 nM; in the assay with HLA-A*02:02 (setting [2]), 747 nM; in the assay with HLA-A*02:06 (setting [2]), 11200 nM.

Take NLERETGLSA: the dissociation constant (Kd) stood at 1660 nM with HLA-A*02:03 (setting [2]), 17600 nM in the assay with HLA-A*02:02 (setting [2]) and 15100 nM with HLA-A*02:06 (setting [2]).

In the case of ALKAYFTAKI, the dissociation constant Kd with HLA-A*02:03 (setting [2]) was 77 nM; with HLA-A*02:02 (setting [2]) it was 194 nM; with HLA-A*02:06 (setting [2]) it was 2780 nM.

Turning to STFNMWREIL, the equilibrium dissociation constant (Kd) with HLA-A*02:03 (setting [2]) came to 907 nM; with HLA-A*02:02 (setting [2]), 3120 nM; with HLA-A*02:06 (setting [2]) it was 3360 nM.

On to ALAAATPMV, for which the equilibrium dissociation constant (Kd) with HLA-A*02:01 worked out at 5.2 nM.

For the sequence NPAVLRKLCI, the Kd with HLA-B*53:01 (setting [3]) turned out to be 5200 nM.

Take GTDAPCKIPF: in the assay with HLA-A*01:01 (setting [3]), the Kd is at least 44700 nM.

For the sequence RTPQDNQLAY, the values for the dissociation constant Kd with HLA-A*01:01 (setting [3]) and with HLA-A*30:02 (setting [3]) were 703 nM and 267 nM, respectively.

In the case of ELTSNCTRTT, the results for the equilibrium dissociation constant (Kd) with HLA-A*02:03 (setting [2]), in the assay with HLA-A*02:02 (setting [2]) and with HLA-A*02:06 (setting [2]) were 1470 nM, 14600 nM and 5720 nM, respectively.

Take HVTRGAVLM: in the assay with HLA-A*26:01 (setting [4]), the dissociation constant Kd was 4890 nM.

Take AYVVIGILTL: in the assay with HLA-A*24:02 (setting [5]), the Kd amounted to 938 nM.

With FLTSLLILV, the results for the Kd in the assay with HLA-A*02:03 (setting [6]), with HLA-A*02:02 (setting [6]) and with HLA-A*02:06 (setting [6]) were 12 nM, 2.17 nM and 3.31 nM, respectively.

As to FGVFTTNIW, the dissociation constant (Kd) with HLA-B*53:01 (setting [4]) worked out at 111 nM.

Take LYAVATTFIT: the Kd with HLA-A*24:02 (source organism: Dengue virus 2 Peru/IQT2913/1996) was at least 23500 nM.

On to SIYIAVANCV, for which the values for the equilibrium dissociation constant (Kd) with HLA-A*02:03 (setting [2]), in the assay with HLA-A*02:02 (setting [2]) and with HLA-A*02:06 (setting [2]) were 62.7 nM, 534 nM and 1000 nM, respectively.

Consider QLSKSEFNTY, for which the Kd came to 1390 nM in the assay with HLA-A*01:01 (setting [3]) and 71.1 nM with HLA-A*30:02 (setting [3]).

Consider FLFLAWIMLL, for which the Kd in the assay with HLA-A*02:03 (setting [6]) stood at 55.7 nM; in the assay with HLA-A*02:02 (setting [6]) it was 18.6 nM; in the assay with HLA-A*02:06 (setting [6]), 1010 nM.

Turning to AWNFLEVEDY, the dissociation constant Kd with HLA-A*30:02 (source organism: Dengue virus 4 Philippines/H241/1956) turned out to be 85.3 nM.

Consider CSHHFHELV, for which, in the assay with HLA-A*01:01 (setting [4]), the Kd is at least 23400 nM.

As for KLMSGKDVFY, the Kd was 1480 nM with HLA-A*01:01 (setting [5]), 15.9 nM with HLA-A*03:01 and at least 69700 nM with HLA-A*30:02 (setting [5]).

On to EMKYALINLV, for which the equilibrium dissociation constant (Kd) with HLA-A*02:03 (setting [2]) turned out to be 283 nM; in the assay with HLA-A*02:02 (setting [2]), 1260 nM; with HLA-A*02:06 (setting [2]), 9830 nM.

In the case of KLDPTNTLW, the Kd with HLA-B*58:01 (source organism: Mammarenavirus juninense) came to 66.9 nM.

Turning to MTSTRTIILV, the figures for the Kd in the assay with HLA-A*02:03 (setting [2]), with HLA-A*02:02 (setting [2]) and with HLA-A*02:06 (setting [2]) were 920 nM, 1980 nM and 217 nM, respectively.

Consider STTENAAYQV, for which the Kd with HLA-A*02:03 (setting [2]) is 4700 nM; in the assay with HLA-A*02:02 (setting [2]), 928 nM; in the assay with HLA-A*02:06 (setting [2]) it was 101 nM.

In the case of WSAIFFTTSL, the values for the dissociation constant Kd in the assay with HLA-A*02:03 (setting [7]), with HLA-A*02:02 (setting [7]) and with HLA-A*02:06 (setting [7]) were 6990 nM, 2000 nM and 1400 nM, respectively.

Consider ITMTTVYHI, for which the equilibrium dissociation constant (Kd) was determined as 7.21 nM in the assay with HLA-A*02:03 (setting [6]), 19.2 nM in the assay with HLA-A*02:02 (setting [6]) and 2.31 nM in the assay with HLA-A*02:06 (setting [6]).

For the sequence LTEFQPHQLW, the Kd is 12900 nM with HLA-A*01:01 (setting [3]) and 990 nM with HLA-B*53:01 (setting [3]).

Consider GLILFVLAL, for which the Kd is 452 nM with HLA-A*02:03 (setting [2]), 129 nM with HLA-A*02:02 (setting [2]) and 7800 nM with HLA-A*02:06 (setting [2]).

Regarding RNPQKENDQY, the Kd with HLA-A*30:02 (setting [5]) was at least 69700 nM.

With LPLFIFSLKD, the equilibrium dissociation constant (Kd) in the assay with HLA-B*53:01 (setting [5]) stood at 2920 nM.

In the assay with HLA-B*58:01 (source organism: Human immunodeficiency virus 1), TAVPWNASW returned a Kd of 13 nM.

Consider LTEFQPHQL, for which the equilibrium dissociation constant (Kd) with HLA-A*01:01 (setting [3]) turned out to be 8760 nM.

As for KRHSTKYHL, the Kd is at least 77900 nM in the assay with HLA-A*26:01 (setting [7]), at least 33300 nM in the assay with HLA-A*30:02 (setting [7]) and at least 60300 nM with HLA-A*24:02 (setting [7]).
